Reference: patent US20240159758A1 (OPKO DIAGNOSTICS, published 2024)

How the values were obtained:
[1] = biological target: T1, Intact prostate specific antigen (iPSA) (Homo sapiens (Human), UniProt P07288 25-261); assay: sandwich (noncompetitive) DELFIA immunoassay, capture probe
T1 construct: also called Intact PSA
Experimental: (§1) The concentrations of tPSA and fPSA are determined with commercial assays approved for use in human diagnostics by the FDA (Roche™ Cobas® instrument and Elecsys® assays). The concentrations of iPSA and hK2 are determined using a test developed to run on the PerkinElmer® AutoDELFIA® instrument.
(§2) The presence of iPSA and hK2 are detected by a sandwich (noncompetitive) immunoassay. The iPSA assay employs two distinct mouse monoclonal antibody products. The capture probe is a biotinylated, recombinant His₆-Cys-tagged Fab fragment of the monoclonal antibody 5A10 with specificity for fPSA (of which iPSA is a component). The tracer is a Europium-labelled monoclonal antibody 4D4, with specificity to iPSA and complexed PSA (PSA-ACT). In combination, the reagents are specific for iPSA. The hK2 assay employs five distinct mouse monoclonal antibody products. The capture probe is a biotinylated, F(ab)₂ fragment of 6H10 monoclonal antibody with specificity for hK2 and tPSA. […]
(§3) The signals obtained from the detection of iPSA and hK2 in the immunoassays are then compared to the signals obtained from the detection of a set of standards (e.g. the calibrator solutions) using the same iPSA and hK2 antibodies. […] The reporting range is defined by the limit of quantification (LoQ) at the low end and the highest calibrator at the high end. For the iPSA and hK2 assays, the LoQ was determined using CLSI EP-17A.

[2] = biological target: T2, Free prostate specific antigen (fPSA) (Homo sapiens (Human), UniProt P07288 25-261); assay: as above
T2 construct: also called Free PSA
Experimental: as §1, §2, §3

T2 sequence (P07288 25-261 limits assumed): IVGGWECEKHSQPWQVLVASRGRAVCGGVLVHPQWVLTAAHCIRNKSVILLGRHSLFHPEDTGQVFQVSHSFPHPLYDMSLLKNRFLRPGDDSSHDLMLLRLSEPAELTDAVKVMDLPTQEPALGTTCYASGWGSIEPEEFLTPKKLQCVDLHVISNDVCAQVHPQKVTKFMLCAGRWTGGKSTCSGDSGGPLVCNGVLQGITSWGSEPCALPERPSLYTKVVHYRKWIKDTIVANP
T1 sequence (P07288 25-261 limits assumed): as above

- binding result [1]: binds
- binding result [2]: binds
B1: biotinylated, recombinant His6-Cys-tagged Fab fragment of the monoclonal antibody 5A10 (Fab, V domains shown)
VH: EVQLVESGPGILQPSQTLSLTCSFSGFSLSTTGMGVSWIRQPSGKGLEWLAHLYWDEDKRYNPSLKSRLTISEDSSRNQVFLKITSVGPADSATYYCARKGYYGYFDYWGQGTALTVSS
VL: DIVMTQSQKFMSTSVGDRVSVTCKASQNVNTDVAWYQQKPGQSPKALIFSTSYRSSGVPDRFTGSGSGTDFTLTITNVQSEDLAEYFCQQYSNYPLTFGAGTKVDLN
modifications: biotinylated (site not stated)
notes: Mouse monoclonal origin; also called Fab 5A10; 5A10 Fab
